For three substances, response results are on record in publication PMC11220742.

For assay [1], the target named is HLA-A*2601 H chain (extracellular domain) refolded with human β2-microglobulin. Put plainly: in vitro refolding, gel filtration. The following applies: parent: est. 300; read off a plot. (In general: In gel filtration, larger molecules generally elute earlier.)
Assay [2] concerns the target HLA-A*0101 H chain (extracellular domain) refolded with human β2-microglobulin. Put plainly: in vitro refolding, gel filtration. The following applies: parent: est. 230; read off a plot.

In the case of EVF peptide (SARS-CoV-2 S 340–351) E1A, the response in assay [1] was 290 mAU.

In the case of EVF peptide (SARS-CoV-2 S 340–351) E1R, the response in assay [1] came out at 100 mAU.

On to EVF peptide (SARS-CoV-2 S 340–351) F3D, for which the response in assay [2] was found to be 330 mAU.
